According to publication PMC8512704, “A Uniform Benchmark for Testing SsrA-Derived Degrons in the Escherichia coli ClpXP Degradation Pathway” (Molecules, 2021):
No end group written: not given here.

T1: SspB (Escherichia coli, UniProt P0AFZ3 1-165)
T1 chain: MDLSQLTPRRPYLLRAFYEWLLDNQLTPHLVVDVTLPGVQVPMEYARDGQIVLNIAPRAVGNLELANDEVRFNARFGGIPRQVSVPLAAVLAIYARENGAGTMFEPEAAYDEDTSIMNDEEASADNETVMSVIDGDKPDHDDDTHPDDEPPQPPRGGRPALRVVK

B1: SspB (natural protein, Escherichia coli, UniProt P0AFZ3 1-165, looked up)
chain: MDLSQLTPRRPYLLRAFYEWLLDNQLTPHLVVDVTLPGVQVPMEYARDGQIVLNIAPRAVGNLELANDEVRFNARFGGIPRQVSVPLAAVLAIYARENGAGTMFEPEAAYDEDTSIMNDEEASADNETVMSVIDGDKPDHDDDTHPDDEPPQPPRGGRPALRVVK

How the values were obtained:
SspB [1] = target: T1, SspB; experiment: MST
SspB [2] = target: B1; experiment: MST; 50 nM eGFP-degron (eGFP fluorescence), SspB titrated 3.72 nM to 122 μM; 25 mM Hepes pH 7.6, 200 mM KCl, 5 mM MgCl2, 10% glycerol, 0.05% Tween 20; 15 min at RT; measured at 20 °C, Monolith NT.115; details: both partners purified
SspB [3] = target: T1, SspB; experiment: MST
ClpX = ClpX (Escherichia coli, UniProt P0A6H1 1-424); experiment: cell-based or functional assay
Chain of ClpX (P0A6H1 whole entry): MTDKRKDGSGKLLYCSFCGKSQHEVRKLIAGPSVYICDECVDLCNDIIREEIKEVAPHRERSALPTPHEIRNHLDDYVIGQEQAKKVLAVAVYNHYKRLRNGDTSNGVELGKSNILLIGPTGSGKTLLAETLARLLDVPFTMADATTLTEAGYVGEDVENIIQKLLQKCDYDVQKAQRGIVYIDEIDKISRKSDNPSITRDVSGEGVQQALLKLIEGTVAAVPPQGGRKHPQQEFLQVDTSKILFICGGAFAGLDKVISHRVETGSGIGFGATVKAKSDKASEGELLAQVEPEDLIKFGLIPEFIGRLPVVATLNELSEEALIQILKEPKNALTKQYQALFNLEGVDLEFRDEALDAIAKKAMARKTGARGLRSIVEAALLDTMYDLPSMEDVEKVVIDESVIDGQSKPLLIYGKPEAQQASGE

Row | Binder | Ka (SspB [1]) | Kd (SspB [2]) | Kd (SspB [3]) | binding result (SspB [2]) | ClpX ATPase activity (NADH-coupled assay, 0.08 µM ClpX6, 30 °C) with increasing SspB2 (0-27.4 μM): increase of reaction velocity (ClpX)
1 | eGFP-AANDENYSENY (AANDENY motif of the ssrA tag followed by the SENY linker, appended to the C-terminus of eGFP; Degron fused to the C-terminus of His-TEV-eGFP; source: E. coli ΔclpP Keio strain (JW0427) (earlier Top10), pBAD, purified (HisTrap and Superdex200 in tandem); not shown: His-TEV, N-terminal, kept; eGFP, N-terminal, kept) [eGFP-AANDENYSENY] | 9.78e+06 M⁻¹ | 0.1 µM | – | – | –
2 | eGFP-AANDENYADAS (ssrA tag variant with the C-terminal ALAA replaced by ADAS, appended to the C-terminus of eGFP; Degron fused to the C-terminus of His-TEV-eGFP; source: E. coli ΔclpP Keio strain (JW0427) (earlier Top10), pBAD, purified (HisTrap and Superdex200 in tandem); not shown: His-TEV, N-terminal, kept; eGFP, N-terminal, kept) [eGFP-AANDENYADAS] | 3.02e+06 M⁻¹ | 0.33 µM | – | – | –
3 | eGFP-AANDENYALAA (ssrA tag of Escherichia coli, the 11 amino acids added by trans-translation (tmRNA), appended to the C-terminus of eGFP; Degron fused to the C-terminus of His-TEV-eGFP; also called eGFP-ssrA; eGFP-SsrA; source: E. coli ΔclpP Keio strain (JW0427) (earlier Top10), pBAD, purified (HisTrap and Superdex200 in tandem); not shown: His-TEV, N-terminal, kept; eGFP, N-terminal, kept) [eGFP-AANDENYALAA] | 1.32e+07 M⁻¹ | 0.08 µM | – | – | –
4 | eGFP-AANDENYAANDENY (two repeats of the AANDENY motif of the ssrA tag, appended to the C-terminus of eGFP; Degron fused to the C-terminus of His-TEV-eGFP; source: E. coli ΔclpP Keio strain (JW0427) (earlier Top10), pBAD, purified (HisTrap and Superdex200 in tandem); not shown: His-TEV, N-terminal, kept; eGFP, N-terminal, kept) [eGFP-AANDENYAANDENY] | 9.56e+06 M⁻¹ | – | 0.12 µM | binds | –
5 | eGFP-AANDENYSENYALAA (ssrA tag variant with the SENY linker between AANDENY and ALAA, appended to the C-terminus of eGFP; Degron fused to the C-terminus of His-TEV-eGFP; source: E. coli ΔclpP Keio strain (JW0427) (earlier Top10), pBAD, purified (HisTrap and Superdex200 in tandem); not shown: His-TEV, N-terminal, kept; eGFP, N-terminal, kept) [eGFP-AANDENYSENYALAA] | 7.8e+06 M⁻¹ | – | 0.14 µM | binds | –
6 | B1 | – | – | – | – | ~2 fold
7 | eGFP-AANDENY (AANDENY motif of the E. coli ssrA tag, appended to the C-terminus of eGFP; Degron fused to the C-terminus of His-TEV-eGFP; source: E. coli ΔclpP Keio strain (JW0427) (earlier Top10), pBAD, purified (HisTrap and Superdex200 in tandem); not shown: His-TEV, N-terminal, kept; eGFP, N-terminal, kept) [eGFP-AANDENY] | 1.08e+07 M⁻¹ | – | 0.11 µM | binds | –
8 | eGFP-AANDENYSENYADAS (ssrA tag variant with the SENY linker and the C-terminal ALAA replaced by ADAS, appended to the C-terminus of eGFP; Degron fused to the C-terminus of His-TEV-eGFP; source: E. coli ΔclpP Keio strain (JW0427) (earlier Top10), pBAD, purified (HisTrap and Superdex200 in tandem); not shown: His-TEV, N-terminal, kept; eGFP, N-terminal, kept) [eGFP-AANDENYSENYADAS] | 3.37e+06 M⁻¹ | 0.3 µM | – | – | –
